Measured values reported in patent US7541156B1, “Method of identifying antinociceptive compounds using protease activated receptor-2” (priority 2000, dated 2009).

Columns and labels:
PAR-2 [1] = target: T1, PAR-2 (Rattus norvegicus, UniProt Q63645); assay: Intracellular Ca2+ response of primary neuronal cultures; format: cell-based; conditions: primary neuronal cultures of adult rat DRGs
T1 construct: assessing the response of primary neuronal cultures to trypsin and AcPep; endogenous in cells; host or cells: primary cultures of adult Sprague-Dawley rat DRG neurons
T1 sequence (Q63645 26-397): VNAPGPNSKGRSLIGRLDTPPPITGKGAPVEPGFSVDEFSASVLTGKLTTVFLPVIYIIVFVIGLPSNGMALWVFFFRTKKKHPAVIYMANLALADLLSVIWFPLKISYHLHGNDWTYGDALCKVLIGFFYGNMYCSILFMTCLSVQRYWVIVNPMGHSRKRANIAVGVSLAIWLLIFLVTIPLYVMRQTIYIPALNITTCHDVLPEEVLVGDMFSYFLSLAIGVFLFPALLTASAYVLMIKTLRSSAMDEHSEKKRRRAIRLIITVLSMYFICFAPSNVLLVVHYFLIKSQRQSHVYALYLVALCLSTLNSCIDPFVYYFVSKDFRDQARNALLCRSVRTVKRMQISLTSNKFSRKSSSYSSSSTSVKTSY
Source text: In the results which follow, it is shown that activated proteases can have direct effects on sensory neurons, mediated by specific receptors. PAR-1 and PAR-2 are present in rat DRGs (Young et al. 2000). The presence of one of these receptors, PAR-2, in sensory neurons is first confirmed by finding evidence of mRNA and protein expression in adult rat thoracic DRGs. The functional implications of PAR-2 expression are then examined by assessing the response of primary neuronal cultures to trypsin and AcPep. Both agonists increased intracellular Ca^2+ confirming previously reported findings that a functional PAR 2 receptor is present in adult rat DRGs (Steinhoff et al. 2000). Trypsin stimulates both PAR-1 and PAR-2 and therefore an increase in intracellular Ca^2+ can be caused by activation of the two different receptors. […] Therefore the increased intracellular Ca^2+ response to AcPep reflects specific PAR-2 mediated activation.
Cell Culture. Primary cultures of rat DRG neurons were prepared from male adult Sprague Dawley rats (200-250 gm). Following enzymatic treatment and dissociation, neurons were spun through a percoll cushion (Hofbauer et al. 1998) and were plated at a density of 10,000-20,000 neurons/well of a 48 well tissue culture plate. […]

PAR-2 [2] = target: T2, PAR-2 (Homo sapiens, UniProt P55085); conditions: Blackhart et al. 1996; cited from earlier work
T2 sequence (P55085 26-397): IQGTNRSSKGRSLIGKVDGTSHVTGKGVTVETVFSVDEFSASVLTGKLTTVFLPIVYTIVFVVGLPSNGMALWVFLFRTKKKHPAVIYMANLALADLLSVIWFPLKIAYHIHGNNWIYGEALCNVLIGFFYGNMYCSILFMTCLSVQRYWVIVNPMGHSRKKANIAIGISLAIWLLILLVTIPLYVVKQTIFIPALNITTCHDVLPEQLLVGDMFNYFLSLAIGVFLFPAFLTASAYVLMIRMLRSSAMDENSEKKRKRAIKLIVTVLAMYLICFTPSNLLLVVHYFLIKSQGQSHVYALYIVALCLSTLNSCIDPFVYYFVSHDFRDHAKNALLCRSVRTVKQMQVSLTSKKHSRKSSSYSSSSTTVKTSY

PAR-1 = target: T3, PAR-1 (Homo sapiens, UniProt P25116); conditions: Blackhart et al. 1996; cited from earlier work
T3 sequence (P25116 22-425): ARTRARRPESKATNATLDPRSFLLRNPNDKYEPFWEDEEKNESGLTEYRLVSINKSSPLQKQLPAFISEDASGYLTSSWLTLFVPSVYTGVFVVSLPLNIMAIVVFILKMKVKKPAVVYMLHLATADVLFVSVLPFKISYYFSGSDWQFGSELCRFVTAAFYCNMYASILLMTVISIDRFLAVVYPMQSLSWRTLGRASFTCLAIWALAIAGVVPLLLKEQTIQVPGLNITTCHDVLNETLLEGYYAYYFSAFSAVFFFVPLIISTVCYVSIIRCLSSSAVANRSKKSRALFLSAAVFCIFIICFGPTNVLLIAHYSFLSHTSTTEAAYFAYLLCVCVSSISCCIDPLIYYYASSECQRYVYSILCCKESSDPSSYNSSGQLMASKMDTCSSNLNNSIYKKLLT

mouse Par2 = target: T4, mouse Par2 (Mus musculus, UniProt P55086); conditions: expressed in frog oocytes; cited from earlier work
T4 construct: host or cells: frog oocytes
T4 sequence (P55086 26-399): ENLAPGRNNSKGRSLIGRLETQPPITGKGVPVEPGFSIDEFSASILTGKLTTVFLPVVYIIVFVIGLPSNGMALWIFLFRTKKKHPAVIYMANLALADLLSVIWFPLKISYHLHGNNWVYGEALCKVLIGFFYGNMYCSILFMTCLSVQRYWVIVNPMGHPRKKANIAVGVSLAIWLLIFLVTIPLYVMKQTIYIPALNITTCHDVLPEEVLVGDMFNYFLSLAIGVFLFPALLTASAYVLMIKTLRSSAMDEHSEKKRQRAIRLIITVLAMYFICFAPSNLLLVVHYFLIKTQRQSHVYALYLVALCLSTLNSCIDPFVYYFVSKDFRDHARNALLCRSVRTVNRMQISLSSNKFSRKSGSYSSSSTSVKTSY

Substance: trypsin: serine protease that stimulates both PAR-1 and PAR-2
- intracellular Ca2+ (PAR-2 [1]): increased
- activation of PAR-2 (PAR-2 [2]): stimulates
- activation of PAR-1 (PAR-1): stimulates
- receptor activation, in words (mouse Par2): could be activated with nanomolar concentrations
